Test results as given in PMC9915621.
Read-outs that look alike come from different tables or passages of the source.

T1: PlzA WT (Borrelia burgdorferi B31, UniProt O51675 1-261)
T1 sequence: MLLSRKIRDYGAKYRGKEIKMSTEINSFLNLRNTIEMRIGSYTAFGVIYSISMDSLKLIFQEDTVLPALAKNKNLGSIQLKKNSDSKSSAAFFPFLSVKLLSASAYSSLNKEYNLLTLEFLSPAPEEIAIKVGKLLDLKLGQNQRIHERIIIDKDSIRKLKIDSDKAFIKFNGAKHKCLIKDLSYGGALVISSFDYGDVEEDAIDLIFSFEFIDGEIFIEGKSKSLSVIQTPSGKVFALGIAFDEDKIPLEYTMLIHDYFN

T2: PlzA RD-RD (Borrelia burgdorferi B31, UniProt O51675 1-261, R145D;R149D)
T2 sequence: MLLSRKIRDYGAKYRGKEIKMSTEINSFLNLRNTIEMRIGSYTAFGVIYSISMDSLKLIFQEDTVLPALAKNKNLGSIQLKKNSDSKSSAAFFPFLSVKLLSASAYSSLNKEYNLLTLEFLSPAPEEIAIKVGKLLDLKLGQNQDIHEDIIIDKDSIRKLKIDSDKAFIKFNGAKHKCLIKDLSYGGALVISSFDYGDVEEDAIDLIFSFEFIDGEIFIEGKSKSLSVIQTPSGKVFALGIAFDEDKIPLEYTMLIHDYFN

T3: PlzA CTD (Borrelia burgdorferi B31, UniProt O51675 142-261)
T3 sequence: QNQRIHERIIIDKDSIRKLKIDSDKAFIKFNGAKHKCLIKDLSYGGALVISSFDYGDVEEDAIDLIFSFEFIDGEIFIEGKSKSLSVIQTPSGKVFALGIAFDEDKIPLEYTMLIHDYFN

B1: glpFKD(-7/+35) (dsDNA)
DNA 1: ATTAAATATAATTTTAATAAGGCTTTTATTAGAAAAATTAAT
DNA 2: ATTAATTTTTCTAATAAAAGCCTTATTAAAATTATATTTAAT
B2: glpFKD(UTR) RNA (ssRNA)
RNA: AUAAUUUUAAUAAGGCUUUUAUUAGAAAAAUUAAU
B3: ssglpF (ssDNA)
DNA: ATTAAATATAATTTTAATAAGGCTTTTATTAGAAAAATTAAT

What was measured:
Assay in all cases: EMSA
[1] = molecular target: T1, PlzA WT
[2] = molecular target: T1, PlzA WT; remark: listed apart in the source
[3] = molecular target: T1, PlzA WT; remark: listed apart in the source
[4] = molecular target: T1, PlzA WT; remark: listed apart in the source
[5] = molecular target: T2, PlzA RD-RD
[6] = molecular target: T1, PlzA WT; remark: listed apart in the source
[7] = molecular target: T3, PlzA CTD
[8] = molecular target: T2, PlzA RD-RD; remark: listed apart in the source

Row | Binder | Kd [1] | Kd [2] | Kd [3] | Kd [4] | binding result [5] | Kd [6] | binding result [7] | binding result [8]
1 | B1 | 2810 nM | 1330 nM | 1250 nM | 1090 nM | no binding | 4220 nM | no binding | 
2 | B2 |  |  |  | 950 nM |  | 4140 nM | no binding | no binding
3 | B3 |  |  |  | 4420 nM |  |  |  | 
